Experimental data published in paper PMC9574550, “Protein engineering approach to enhance activity assays of mono-ADP-ribosyltransferases through proximity” (Protein Engineering, Design and Selection, 2022).

Columns and labels:
PARP16 = target: T1, PARP16 (Homo sapiens, UniProt Q8N5Y8); test: homogeneous NAD+ conversion assay, dose-response; format: biochemical
T1 construct: catalytic fragment, MBP-PARP16-Dockerin (PARP16-Dock) on C8 scaffold
T1 sequence (Q8N5Y8 94-279 limits assumed): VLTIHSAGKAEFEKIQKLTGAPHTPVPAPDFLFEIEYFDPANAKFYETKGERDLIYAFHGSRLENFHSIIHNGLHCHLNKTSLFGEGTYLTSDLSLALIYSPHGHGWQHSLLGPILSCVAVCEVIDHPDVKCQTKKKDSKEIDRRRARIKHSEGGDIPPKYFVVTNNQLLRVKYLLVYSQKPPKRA

[1] = target: C8 scaffold (eight tandem repeats of H. thermocellum CipA cohesin 1) (Hungateiclostridium thermocellum) (UniProt Q06851); test: SEC-MALS; 35 μM enzyme mixed with C8 scaffold in SEC buffer with 2 mM CaCl2, S200 Increase 10/300; ratio that resulted in no visible unbound PARP10-Dock (saturating conditions)
[2] = target: C8 scaffold (eight tandem repeats of H. thermocellum CipA cohesin 1) (Hungateiclostridium thermocellum) (UniProt Q06851); test: SEC-MALS; 35 μM enzyme mixed with C8 scaffold in SEC buffer with 2 mM CaCl2, S200 Increase 10/300; apparent excess of PARP10-Dock (limited C8 scaffold)

Compound	IC50 (PARP16)	stoichiometry N (PARP10-Dock per C8 scaffold) [1]	stoichiometry N (PARP10-Dock per C8 scaffold) [2]
CN(C)CC(=O)Nc1ccc2[nH]c(=O)c3ccccc3c2c1 [PJ34]	38 µM		
PARP10-Dock (MBP-PARP10 catalytic fragment-Cel48S dockerin) (from UniProt A3DH67 673-739) (enzyme)		7	< 8
